The values that follow come from patent US20150160214A1, “Quantitation of Cellular Adhesion Dynamics Across Immobilized Receptors Under Rheological Shear Flow” (Mayo Foundation for Medical Education and Research, priority 2013, published 2015).

One data set concerns the target T1, platelet GPIbα (Homo sapiens, UniProt P07359).
T1 construct: endogenous in cells; host or cells: platelets in citrated whole blood of normal healthy volunteer donors
Description: Platelet pause times on surface-captured A1 domain variants, parallel plate flow chamber (Table 4, Example 3). The data set is classed as cell-based. The settings on record: shear rate 1500 s^−1; mean ± std. dev., number of measurements in parentheses; NB = No Binding. Here is the method:
The determination and analysis of platelet pause times and instantaneous translocation velocities over surface captured A1 and RCAM A1 was performed as previously described (Tischer:2013). Here, the inventor used the Cellix Mims Evo syringe pump controlled by VenaFluxAssay (www.cellixltd.com). Vena8™ CGS biochips were custom designed with 800 μm width by 80 μm height microchannels bonded to glass slides with a Cu^2+ chelated PEG surface serviced by Microsurfaces Inc. (www.proteinslides.com/histag.html) to which the A1 and RCAM A1 in TBS were captured by the 6×His-Tag at a total concentration of 5 μM. Citrated whole blood was obtained from the informed consent of healthy volunteer donors with approval from the Mayo Clinic Institutional Review Board and 100 μL was perfused over the surface captured A1 domains at 700 s^−1. The shear was increased or decreased in a stepwise manner to measure the dynamics of platelet adhesion at high and low shear. After allowing the flow chamber to equilibrate for 50 s at each shear rate, 1 min movies were recorded at 24 frames per second in phase contrast at 200× magnification with 2×2 pixel binning on a Zeiss AxioCam Mrm camera (6.45 μm/px) attached to a Zeiss Axio Observer.D1 inverted microscope. Tracking analysis was performed using MediaCybernetics ImagePro® Premier (www.mediacy.com/index.aspx?page=IP\_Premier) The distance travelled in the direction of flow was calculated from the coordinate data for each platelet as a function of time using √{square root over ((xt−x0)^2)}, where x0 is the coordinates of a platelet on the first frame of the movie and xt is the coordinate on subsequent frames of the movie. These trajectories were differentiated into instantaneous velocities using a Savitzky-Golay algorithm (Savitzky:1964) with a five data point window size and a second order polynomial implemented into a Mathematica (www.wolfram.com/mathematica) notebook written in our lab. Trajectories were retained for statistical analysis if the platelet was present for ≧1 s and travelled a total distance greater than 1 Distance travelled in pixels (px) was converted to (μm) using 6.45 μm/px*2/200=0.0645 μm/px. Pause times were determined by the amount of time (sec) a platelets velocity was 0±4 px/s≅0±0.23 μm/s, within the noise. Data are reported as mean velocities and pause times attained by individual platelets averaged over all platelets analyzed. Integral analysis of the cumulative pause time histogram gives the survival fraction, equation (24).
The rheological interaction of platelets with A1 domain variants harboring type 2M and type 2B mutations was studied using recently developed flow-chamber methods (19). The A1 domains ([…]) were immobilized on Vena8™ biochips (Cellix, Dublin, Ireland) coated with a Cu^2+-chelated poly-ethylene-glycol surface serviced by MicroSurfaces, Inc. (Englewood, N.J.) via the 6×His-Tag, enabling the preservation of the structural properties of the domain in solution and its concomitant effects on platelet adhesion under rheological shear flow. One-hundred microliters of citrated whole blood, obtained from the informed consent of normal healthy volunteer donors with approval from the Mayo Clinic Institutional Review Board (Rochester, Minn.), was perfused at a shear rate of 800 s^−1 followed by Tris-buffered saline. Platelets translocating on the surface-captured domains were filmed at 24 frames/s for 1 min at logarithmic intervals of the shear rate. Coordinates obtained from tracking analysis of the resulting movies were processed using the inventor recently developed statistical analytics for the quantification of cellular adhesion dynamics across immobilized receptors under rheological shear flow (supra). Biochips lacking the surface-captured A1 domain were completely inert to platelets.

Data set [1] in a line: Conformational and thermodynamic classification of A1 domain variants (urea and thermal denaturation, CD, FL, ANS). Type of data set: physicochemical. As to the method: Circular dichroism measurements were performed on a Model No. 420C circular-dichroism spectrometer (Aviv Biomedical, Inc., Lakewood Township, N.J.). All fluorescence (FL) measurements were performed on a Fluorolog3 spectrofluorometer (HORIBA Jobin-Yvon, Edison, N.J.) equipped with a Model No. LF1-3751 temperature controller (Wavelength Electronics Inc., Bozeman, Mont.). Near- and far-ultraviolet (UV) circular dichroism (CD), intrinsic protein FL, and ANS (8-anilino naphthalene sulfonic acid) […] spectra were determined as described in Tischer et al. (19). Urea denaturation (monitored by far-UV CD) and thermal denaturation (monitored by far-UV CD, intrinsic protein FL, and ANS FL) were performed and analyzed as previously described (19,20). Acrylamide quenching of intrinsic tryptophan fluorescence was performed and analyzed as described in Tischer et al. (19). All spectra were collected at 20° C.
The effects of mutations on the thermodynamic stability of A1 (18) was determined and a framework that incorporated partial unfolding as a means for enhancing the binding affinity of A1 for GPIba was developed (17). Initially, urea-temperature phase diagram method were used for assessing the reversible thermodynamics of unfolding at various temperatures (18,21), and more recently thermal denaturations were used to assess kinetic irreversibility (20,22). The inventor employed these methods using a variety of spectroscopic observables that assess the conformation of these A1 domain variants as a function of temperature and urea.
The observables included the following: (1) Far-UV CD to assess secondary structure content; (2) Near-UV CD to assess tertiary structure content; (3) Intrinsic protein FL to assess solvent exposure of tyrosine and tryptophan residues; (4) Acrylamide quenching of tryptophan FL to assess local solvent exposure of the single tryptophan residue; and (5) Binding of the molten globule indicator-dye, ANS, to assess exposure of hydrophobic surface area.
In total, these studies have provided metrics that are able to classify the conformation of A1 into three types, based on biophysical spectroscopy, as follows:
The type 2B mutations R1306Q and I1309V and the type 2M mutation G1324S have previously been characterized in this conformational class (18). In addition, R1308L and I1372S also belong to this class.
The type 2M mutation A1437T and the type 2B mutation R1341Q belong to this class.
The type 2M mutations F1369I, E1359K, I1425F, S1285F, and R1374H, and the type 2B mutations H1268D, P1337L, V1316M, and V1314D, belong to this class.

As to “A1-1238: Recombinant human vWF A1 domain, amino acids Q1238-P1471, with N-terminal 6×His-Tag, disulfide intact”, the “Pause Time 1500 s^−1 (s)” value in the data set with platelet GPIbα is reported as 0.67 ± 0.07 (6) s. Moreover, the “A1 domain Conformation” value in data set [1] was “N (N = “Native” (native structure with varying thermodynamic stability))”.
